Like-named read-outs stand apart in the source and are kept apart here.

The chains are these.
T1: His6-tagged mouse GYF2 (mouse, UniProt Q6Y7W8 1-1291)
T1 sequence (looked up): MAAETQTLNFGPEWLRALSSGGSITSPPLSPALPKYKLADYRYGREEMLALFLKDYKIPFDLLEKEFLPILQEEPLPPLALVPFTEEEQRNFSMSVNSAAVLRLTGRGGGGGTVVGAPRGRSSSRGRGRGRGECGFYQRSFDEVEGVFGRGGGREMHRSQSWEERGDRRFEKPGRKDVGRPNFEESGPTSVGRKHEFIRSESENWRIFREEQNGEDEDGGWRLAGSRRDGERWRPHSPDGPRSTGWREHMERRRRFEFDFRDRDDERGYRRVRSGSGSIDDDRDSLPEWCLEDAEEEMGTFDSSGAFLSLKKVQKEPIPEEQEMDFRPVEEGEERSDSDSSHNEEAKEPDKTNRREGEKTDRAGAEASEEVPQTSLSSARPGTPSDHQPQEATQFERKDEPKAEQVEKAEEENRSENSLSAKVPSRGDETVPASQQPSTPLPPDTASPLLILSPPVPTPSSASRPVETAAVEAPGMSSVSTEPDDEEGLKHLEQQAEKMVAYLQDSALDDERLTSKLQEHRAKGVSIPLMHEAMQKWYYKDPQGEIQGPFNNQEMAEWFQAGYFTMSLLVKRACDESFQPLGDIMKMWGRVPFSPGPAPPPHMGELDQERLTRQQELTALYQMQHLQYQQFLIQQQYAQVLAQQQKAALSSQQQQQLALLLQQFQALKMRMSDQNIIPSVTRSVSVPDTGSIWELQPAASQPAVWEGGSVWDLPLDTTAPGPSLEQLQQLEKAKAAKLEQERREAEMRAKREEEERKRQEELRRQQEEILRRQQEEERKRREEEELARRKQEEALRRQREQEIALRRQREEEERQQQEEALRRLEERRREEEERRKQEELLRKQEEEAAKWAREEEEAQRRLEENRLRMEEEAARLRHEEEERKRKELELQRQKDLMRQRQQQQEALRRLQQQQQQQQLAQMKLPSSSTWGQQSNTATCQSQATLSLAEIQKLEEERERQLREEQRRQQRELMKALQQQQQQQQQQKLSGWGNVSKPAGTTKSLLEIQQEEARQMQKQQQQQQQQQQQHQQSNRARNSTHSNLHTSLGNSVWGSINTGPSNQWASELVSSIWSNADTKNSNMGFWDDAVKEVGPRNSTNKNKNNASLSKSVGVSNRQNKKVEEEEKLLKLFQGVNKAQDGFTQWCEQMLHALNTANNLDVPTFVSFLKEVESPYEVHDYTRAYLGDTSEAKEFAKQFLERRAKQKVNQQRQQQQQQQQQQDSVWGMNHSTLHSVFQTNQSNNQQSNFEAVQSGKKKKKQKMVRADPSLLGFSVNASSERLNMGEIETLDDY

B1: His6-tagged mouse 4EHP (natural protein, UniProt Q8BMB3 1-245, looked up)
chain: MNNKFDALKDDDSGDHDQNEENSTQKDGEKEKTDRDKSQSSGKRKAVVPGPAEHPLQYNYTFWYSRRTPGRPTSSQSYEQNIKQIGTFASVEQFWKFYSHMVRPGDLTGHSDFHLFKEGIKPMWEDDANKNGGKWIIRLRKGLASRCWENLILAMLGEQFMVGEEICGAVVSVRFQEDIISIWNKTASDQATTARIRDTLRRVLNLPPNTIMEYKTHTDSIKMPGRLGPQRLLFQNLWKPRLNVP
B2: GST-tagged mouse TTP (natural protein, UniProt P22893 1-319, looked up)
chain: MDLSAIYESLQSMSHDLSSDHGGTESLGGLWNINSDSIPSGVTSRLTGRSTSLVEGRSCGWVPPPPGFAPLAPRPGPELSPSPTSPTATPTTSSRYKTELCRTYSESGRCRYGAKCQFAHGLGELRQANRHPKYKTELCHKFYLQGRCPYGSRCHFIHNPTEDLALPGQPHVLRQSISFSGLPSGRRSSPPPPGFSGPSLSSCSFSPSSSPPPPGDLPLSPSAFSAAPGTPVTRRDPNQACCPSCRRSTTPSTIWGPLGGLARSPSAHSLGSDPDDYASSGSSLGGSDSPVFEAGVFGPPQTPAPPRRLPIFNRISVSE

Common to all, as to test: pull-down
Experiment [1] addresses T1, His6-tagged mouse GYF2.
The target of the experiment “GST-tagged mouse TTP” is B2.
Experiment [2] addresses T1, His6-tagged mouse GYF2. This is another data set of the same source.

As to B1, the binding result with His6-tagged mouse GYF2 [1] and with GST-tagged mouse TTP was “binds” throughout.
For B2, the binding result in the experiment with His6-tagged mouse GYF2 [2] is on record as “binds”.
